The text below walks through data of patent US20260317420 (published 2026).

Assay [1] addresses T1, human Claudin18.2 (human, UniProt P56856). Description: BLI, bivalent.
Another assay deals with T2, human Claudin18.1 (human, UniProt P56856).
T2 chain: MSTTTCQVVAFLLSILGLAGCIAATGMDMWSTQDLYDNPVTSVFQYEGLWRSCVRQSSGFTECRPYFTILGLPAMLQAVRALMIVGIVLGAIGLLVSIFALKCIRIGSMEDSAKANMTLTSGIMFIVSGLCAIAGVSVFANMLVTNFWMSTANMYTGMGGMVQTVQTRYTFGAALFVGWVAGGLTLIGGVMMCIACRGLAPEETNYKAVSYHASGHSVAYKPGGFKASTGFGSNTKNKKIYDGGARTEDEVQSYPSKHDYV
As to the kind of experiment: ELISA.

The target in a further assay is T3, rat Claudin18.1 (rat, UniProt Q5I0E5).
T3 chain: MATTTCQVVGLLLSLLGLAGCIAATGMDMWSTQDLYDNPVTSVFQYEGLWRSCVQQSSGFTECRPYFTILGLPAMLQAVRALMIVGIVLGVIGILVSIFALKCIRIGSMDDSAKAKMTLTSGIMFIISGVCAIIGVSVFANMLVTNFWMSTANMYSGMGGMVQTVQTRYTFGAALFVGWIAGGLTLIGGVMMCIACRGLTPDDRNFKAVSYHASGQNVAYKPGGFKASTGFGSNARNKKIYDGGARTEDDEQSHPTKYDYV
As to the kind of experiment: FACS.

Assay [2] has as its target T1, human Claudin18.2. As to the kind of experiment: BLI.
A further assay concerns the target T4, mouse Claudin18.1 (mouse, UniProt P56857).
T4 chain: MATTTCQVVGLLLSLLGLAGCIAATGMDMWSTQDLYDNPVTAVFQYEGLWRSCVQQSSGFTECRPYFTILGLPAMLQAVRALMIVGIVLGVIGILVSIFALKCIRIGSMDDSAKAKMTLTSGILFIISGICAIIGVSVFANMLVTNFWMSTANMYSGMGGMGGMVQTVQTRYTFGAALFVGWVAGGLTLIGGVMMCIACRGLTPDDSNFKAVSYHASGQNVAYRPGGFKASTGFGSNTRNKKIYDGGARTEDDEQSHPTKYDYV
As to the kind of experiment: FACS.

A further assay addresses T5, mouse Claudin18.2 (mouse, UniProt P56857).
T5 chain: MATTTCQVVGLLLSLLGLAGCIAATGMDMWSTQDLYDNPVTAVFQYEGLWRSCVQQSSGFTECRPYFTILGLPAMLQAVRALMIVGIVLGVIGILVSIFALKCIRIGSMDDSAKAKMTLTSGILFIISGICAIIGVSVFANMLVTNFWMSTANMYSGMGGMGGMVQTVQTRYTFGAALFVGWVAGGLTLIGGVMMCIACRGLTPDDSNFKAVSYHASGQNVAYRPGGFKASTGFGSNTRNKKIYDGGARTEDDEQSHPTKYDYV
As to the kind of experiment: BLI.

B1: 5103F3 BSM (SI-64M1) (antibody, V domains shown)
VH: QVQLQESGGRLIKPGEPLRLSCKTSGIDLSGFAMGWVRQAPGKGLEYIGFIDSGGGAFYATWARGRFTISRTSTNTVYLQMNSLTAEDTAVYYCARHGGNTYYYAMDPWGPGTLVTVSS
VL: ALRMTQSPSSLAATTGQRVTITCQASQSISNYLAWYQQKPGQPPKLLIYSASTLASGVPSRFKGSGSGTQFTLTISCVQCEDFATYYCQQVYSVTNIDNAFGGGTRVEIK
Consider B1, for which the Kd with human Claudin18.2 [1] stood at 0.216 nM; in the assay with human Claudin18.2 [2], 1.45 nM; with mouse Claudin18.2, 1.73 nM. Further, the binding result with human Claudin18.1, with rat Claudin18.1 and with mouse Claudin18.1 was “no binding” in each case.

B2: Zolbetuximab (SI-64C8) (antibody, V domains shown)
VH: QVQLQQPGAELVRPGASVKLSCKASGYTFTSYWINWVKQRPGQGLEWIGNIYPSDSYTNYNQKFKDKATLTVDKSSSTAYMQLSSPTSEDSAVYYCTRSWRGNSFDYWGQGTTLTVSS
VL: DIVMTQSPSSLTVTAGEKVTMSCKSSQSLLNSGNQKNYLTWYQQKPGQPPKLLIYWASTRESGVPDRFTGSGSGTDFTLTISSVQAEDLAVYYCQNDYSYPFTFGSGTKLEIKR
In the case of B2, the Kd with human Claudin18.2 [1] amounted to 5.31 nM; with human Claudin18.2 [2] it was 1.59 nM.

B3: 5208H10 (SI-64CH5) (antibody, V domains shown)
VH: QSVKESEGGLFKPTDTLTLTCTVSGFSLSTYAMSWVRQAPGNGLEWIGIIDAVGRTYYASWAKSRSTITRNTNLNTVTLKMTSLTAADTATYFCARWWDLWGQGTLVTVSS
VL: AQVLTQTASSVSAAVGGTVTINCQSSQSVYDSNDLTWYQQKPGQSPKLLIYLASTLASGVPSRFKGSGSGTQFTLTISDLECDDSATYYCAAHYNSDIYTFGGGTEVEVK
Turning to B3, the Kd with human Claudin18.2 [2] is 3 nM.
